This assay addresses T1, recombinant human C1r2s2 tetramer (human, UniProt P09871 16-688; P00736 18-705).
T1 construct: Heterotetramer of two C1r and two C1s chains, co-expressed in FreeStyle293-F cells; also called human C1r2s2s
T1 chain 1: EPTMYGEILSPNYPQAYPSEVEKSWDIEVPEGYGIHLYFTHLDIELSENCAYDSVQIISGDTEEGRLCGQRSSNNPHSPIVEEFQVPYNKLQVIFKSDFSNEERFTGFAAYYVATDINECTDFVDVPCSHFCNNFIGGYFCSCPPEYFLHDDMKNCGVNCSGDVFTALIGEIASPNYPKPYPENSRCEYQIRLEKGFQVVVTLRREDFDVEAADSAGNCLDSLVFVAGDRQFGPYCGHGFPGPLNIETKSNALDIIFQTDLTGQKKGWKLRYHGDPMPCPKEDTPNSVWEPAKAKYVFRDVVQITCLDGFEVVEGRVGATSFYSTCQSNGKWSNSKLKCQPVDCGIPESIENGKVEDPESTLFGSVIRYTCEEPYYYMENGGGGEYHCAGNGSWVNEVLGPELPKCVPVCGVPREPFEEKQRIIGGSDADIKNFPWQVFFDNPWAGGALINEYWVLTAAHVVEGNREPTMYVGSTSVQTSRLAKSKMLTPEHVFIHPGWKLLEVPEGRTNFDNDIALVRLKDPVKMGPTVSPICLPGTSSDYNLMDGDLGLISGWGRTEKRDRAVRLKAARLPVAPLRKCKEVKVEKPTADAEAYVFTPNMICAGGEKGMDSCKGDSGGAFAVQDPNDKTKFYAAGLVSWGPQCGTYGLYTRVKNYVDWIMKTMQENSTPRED
T1 chain 2: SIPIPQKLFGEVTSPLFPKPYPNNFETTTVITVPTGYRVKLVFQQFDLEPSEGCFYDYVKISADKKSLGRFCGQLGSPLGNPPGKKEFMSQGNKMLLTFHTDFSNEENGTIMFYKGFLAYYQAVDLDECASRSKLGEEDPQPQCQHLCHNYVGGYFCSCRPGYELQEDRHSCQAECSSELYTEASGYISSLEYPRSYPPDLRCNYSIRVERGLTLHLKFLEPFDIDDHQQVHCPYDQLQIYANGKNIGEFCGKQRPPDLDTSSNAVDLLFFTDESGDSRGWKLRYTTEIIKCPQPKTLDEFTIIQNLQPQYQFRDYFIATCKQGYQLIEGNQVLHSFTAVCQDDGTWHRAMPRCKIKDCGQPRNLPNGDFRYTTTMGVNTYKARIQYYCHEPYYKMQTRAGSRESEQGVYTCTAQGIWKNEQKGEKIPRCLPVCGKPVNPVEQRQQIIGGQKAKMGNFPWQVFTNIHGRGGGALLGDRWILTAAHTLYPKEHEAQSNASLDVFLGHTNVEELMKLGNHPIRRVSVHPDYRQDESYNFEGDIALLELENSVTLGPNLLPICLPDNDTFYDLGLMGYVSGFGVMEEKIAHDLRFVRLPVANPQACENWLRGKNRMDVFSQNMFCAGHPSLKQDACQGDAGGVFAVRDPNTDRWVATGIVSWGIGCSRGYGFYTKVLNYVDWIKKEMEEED
In words: SPR (Biacore), antibody captured on ProA/G, antigen as analyte, 37 C, pH7.4, 1.2 mM CaCl2. The method, then:
The kinetic parameters of anti-C1s antibodies against recombinant human C1s (as described in PCT/JP2018/042054), human C1r2s2, and cyno C1r2s2 His/Flag (also referred as cyno C1r2s2 in the Table and Figures) were assessed at pH7.4 and pH5.8, at 37 degrees C. using BIACORE (registered trademark) T200 instrument (GE Healthcare) or BIACORE 4000 (GE Healthcare). ProAG (Pierce) was immobilized onto a CM4 sensorchip using amine coupling kit (GE Healthcare) according to the recommended settings by GE Healthcare. Antibodies and analytes were diluted into the respective running buffers, ACES pH7.4 and pH5.8 (20 mM ACES, 150 mM NaCl, 1.2 mM CaCl₂, 1 mg/ml BSA, 1 mg/ml CMD, 0.05% Tween 20, 0.005 w/v % NaN₃). Each antibody was captured onto the sensor surface by ProA/G. Antibody capture levels were typically 100-200 resonance units (RU). Then, recombinant C1s was injected at concentrations of 25 and 50 nM followed by dissociation at pH7.4 and pH5.8. The surface was regenerated using 10 mM Glycine-HCl, pH1.5. Kinetic parameters at neutral pH conditions and acidic conditions were determined by fitting the sensorgrams with 1:1 binding model using BIACORE (registered trademark) T200 Evaluation software, version 2.0 (GE Healthcare) or BIACORE 4000 Evaluation software. The dissociation rate at pH5.8 (after dissociation at pH7.4, indicated as pH5.8* in TABLE 2) was determined by processing and fitting data using Scrubber 2.0 (BioLogic Software) curve fitting software. The association rate (ka), dissociation rate (kd), binding affinity (KD) at pH7.4 and pH5.8 condition, and dissociation rate (kd) at pH5.8* condition of the antibodies are listed in TABLE 2. Some kinetic parameters of COS0098pHv1 in acidic condition were not correctly calculated because of its weak binding response.
Also, to observe the cross-reactivity of anti-C1s antibodies against human C1r2s2 and cyno C1r2s2 (cyno C1r2s2 His/Flag), BIACORE (registered trademark) kinetics analysis was performed.
For orientation: In SPR one partner is held on a chip, and binding of the other changes the refractive index at the surface.

B1: COS0098pHv1 (antibody, V domains shown)
VH: QVQLVQSGAEVKKPGSSVKVSCKASGHTFSKYTVSWIRQPPGKGLEWIGIINTGGSAYPATWAKGRVTITADESTSTAYMELSSLRSEDTAVYYCARGAGDTDYTNLWGQGTLVTVSS
VL: DIQMTQSPSSLSASVGDRVTITCQASENIYSALAWYQQKPGQPPKLLIYGASQLESGVPSRFSGSGSGTDFTLTISSLQPEDFATYYCQQYYFTSHTFGQGTKVEIK
notes: Humanized, optimized pH-dependent variant of COS0098bb
Regarding B1, the Kd came out at 4 nM, the koff worked out at 0.00206 s⁻¹ and the kon was 514000 M⁻¹ s⁻¹.

The Kd is the constant that tells how readily two partners part at equilibrium. As a reminder, the koff is the rate constant with which the complex falls apart. As usually defined, the kon is a measure of how fast the partners come together.

The values above are taken from patent US20230002481A1 (Chugai, published 2023).
